Measured values as given in publication PMC13419597, “An Acetylation-Primed SUMOylation Switch Controls RORβ Stability through a p300-SIRT1 Regulatory Axis” (Research Square, 2024).

Biological target: T1, His-HA-RORβ (isoform 1) (human, UniProt Q92753-1 1-459)
T1 construct: Retinoic acid receptor-related orphan receptor beta (RORβ), human, isoform 1 (RORβ1); the printed residue numbers (K11 to K459 at the C-terminus of the LBD) fit the 459-residue form; Same plasmid used in TC28a2 (RIME) and HEK293T (co-IP, IP-MS); also called HA-tagged RORβ; RORβ WT; source: TC28a2 or HEK293T, transiently transfected (pCMV6), in lysate
T1 sequence (looked up): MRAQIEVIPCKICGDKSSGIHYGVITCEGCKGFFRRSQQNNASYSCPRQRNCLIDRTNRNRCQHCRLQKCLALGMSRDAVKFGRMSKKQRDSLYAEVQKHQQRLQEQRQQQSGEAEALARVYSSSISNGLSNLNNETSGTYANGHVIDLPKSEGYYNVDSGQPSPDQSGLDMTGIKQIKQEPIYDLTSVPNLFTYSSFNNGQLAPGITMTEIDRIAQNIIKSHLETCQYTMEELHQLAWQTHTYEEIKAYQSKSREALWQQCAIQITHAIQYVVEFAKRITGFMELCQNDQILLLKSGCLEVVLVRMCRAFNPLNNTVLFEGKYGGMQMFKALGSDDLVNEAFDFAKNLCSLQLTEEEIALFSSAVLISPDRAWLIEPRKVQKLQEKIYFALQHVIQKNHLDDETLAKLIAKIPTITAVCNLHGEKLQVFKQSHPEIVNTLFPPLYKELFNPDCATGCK
Test: affinity purification with mass spectrometry; RIME: HA-RORβ transfected in TC28a2 chondrocytes, 1% formaldehyde crosslinking in cells, nuclear lysate, anti-HA magnetic beads, HA-peptide-blocked control; also with SIRT1 activator SRT2104 against DMSO
Conditions: partners not purified

log2 fold change of PIAS1 in RORβ immunoprecipitates, SRT2104 against DMSO: ~-0.4 log2 fold change (SRT2104/DMSO)
B1: PIAS1, endogenous in TC28a2 (enzyme, human (endogenous in TC28a2), UniProt O75925 1-651, looked up)
chain: MADSAELKQMVMSLRVSELQVLLGYAGRNKHGRKHELLTKALHLLKAGCSPAVQMKIKELYRRRFPQKIMTPADLSIPNVHSSPMPATLSPSTIPQLTYDGHPASSPLLPVSLLGPKHELELPHLTSALHPVHPDIKLQKLPFYDLLDELIKPTSLASDNSQRFRETCFAFALTPQQVQQISSSMDISGTKCDFTVQVQLRFCLSETSCPQEDHFPPNLCVKVNTKPCSLPGYLPPTKNGVEPKRPSRPINITSLVRLSTTVPNTIVVSWTAEIGRNYSMAVYLVKQLSSTVLLQRLRAKGIRNPDHSRALIKEKLTADPDSEIATTSLRVSLLCPLGKMRLTIPCRALTCSHLQCFDATLYIQMNEKKPTWVCPVCDKKAPYEHLIIDGLFMEILKYCTDCDEIQFKEDGTWAPMRSKKEVQEVSASYNGVDGCLSSTLEHQVASHHQSSNKNKKVEVIDLTIDSSSDEEEEEPSAKRTCPSLSPTSPLNNKGILSLPHQASPVSRTPSLPAVDTSYINTSLIQDYRHPFHMTPMPYDLQGLDFFPFLSGDNQHYNTSLLAAAAAAVSDDQDLLHSSRFFPYTSSQMFLDQLSAGGSTSLPTTNGSSSGSNSSLVSSNSLRESHSHTVTNRSSTDTASIFGIIPDIISLD
notes: E3 SUMO-protein ligase PIAS1, endogenous in TC28a2 human chondrocytes; source: endogenous, TC28a2 nuclear lysate
